{"source": "paper PMC8443744", "molecular_target": "senataxin (SETX), endogenous (human (endogenous in MRC-5)) (UniProt Q7Z333)", "sequence (Q7Z333 whole entry)": "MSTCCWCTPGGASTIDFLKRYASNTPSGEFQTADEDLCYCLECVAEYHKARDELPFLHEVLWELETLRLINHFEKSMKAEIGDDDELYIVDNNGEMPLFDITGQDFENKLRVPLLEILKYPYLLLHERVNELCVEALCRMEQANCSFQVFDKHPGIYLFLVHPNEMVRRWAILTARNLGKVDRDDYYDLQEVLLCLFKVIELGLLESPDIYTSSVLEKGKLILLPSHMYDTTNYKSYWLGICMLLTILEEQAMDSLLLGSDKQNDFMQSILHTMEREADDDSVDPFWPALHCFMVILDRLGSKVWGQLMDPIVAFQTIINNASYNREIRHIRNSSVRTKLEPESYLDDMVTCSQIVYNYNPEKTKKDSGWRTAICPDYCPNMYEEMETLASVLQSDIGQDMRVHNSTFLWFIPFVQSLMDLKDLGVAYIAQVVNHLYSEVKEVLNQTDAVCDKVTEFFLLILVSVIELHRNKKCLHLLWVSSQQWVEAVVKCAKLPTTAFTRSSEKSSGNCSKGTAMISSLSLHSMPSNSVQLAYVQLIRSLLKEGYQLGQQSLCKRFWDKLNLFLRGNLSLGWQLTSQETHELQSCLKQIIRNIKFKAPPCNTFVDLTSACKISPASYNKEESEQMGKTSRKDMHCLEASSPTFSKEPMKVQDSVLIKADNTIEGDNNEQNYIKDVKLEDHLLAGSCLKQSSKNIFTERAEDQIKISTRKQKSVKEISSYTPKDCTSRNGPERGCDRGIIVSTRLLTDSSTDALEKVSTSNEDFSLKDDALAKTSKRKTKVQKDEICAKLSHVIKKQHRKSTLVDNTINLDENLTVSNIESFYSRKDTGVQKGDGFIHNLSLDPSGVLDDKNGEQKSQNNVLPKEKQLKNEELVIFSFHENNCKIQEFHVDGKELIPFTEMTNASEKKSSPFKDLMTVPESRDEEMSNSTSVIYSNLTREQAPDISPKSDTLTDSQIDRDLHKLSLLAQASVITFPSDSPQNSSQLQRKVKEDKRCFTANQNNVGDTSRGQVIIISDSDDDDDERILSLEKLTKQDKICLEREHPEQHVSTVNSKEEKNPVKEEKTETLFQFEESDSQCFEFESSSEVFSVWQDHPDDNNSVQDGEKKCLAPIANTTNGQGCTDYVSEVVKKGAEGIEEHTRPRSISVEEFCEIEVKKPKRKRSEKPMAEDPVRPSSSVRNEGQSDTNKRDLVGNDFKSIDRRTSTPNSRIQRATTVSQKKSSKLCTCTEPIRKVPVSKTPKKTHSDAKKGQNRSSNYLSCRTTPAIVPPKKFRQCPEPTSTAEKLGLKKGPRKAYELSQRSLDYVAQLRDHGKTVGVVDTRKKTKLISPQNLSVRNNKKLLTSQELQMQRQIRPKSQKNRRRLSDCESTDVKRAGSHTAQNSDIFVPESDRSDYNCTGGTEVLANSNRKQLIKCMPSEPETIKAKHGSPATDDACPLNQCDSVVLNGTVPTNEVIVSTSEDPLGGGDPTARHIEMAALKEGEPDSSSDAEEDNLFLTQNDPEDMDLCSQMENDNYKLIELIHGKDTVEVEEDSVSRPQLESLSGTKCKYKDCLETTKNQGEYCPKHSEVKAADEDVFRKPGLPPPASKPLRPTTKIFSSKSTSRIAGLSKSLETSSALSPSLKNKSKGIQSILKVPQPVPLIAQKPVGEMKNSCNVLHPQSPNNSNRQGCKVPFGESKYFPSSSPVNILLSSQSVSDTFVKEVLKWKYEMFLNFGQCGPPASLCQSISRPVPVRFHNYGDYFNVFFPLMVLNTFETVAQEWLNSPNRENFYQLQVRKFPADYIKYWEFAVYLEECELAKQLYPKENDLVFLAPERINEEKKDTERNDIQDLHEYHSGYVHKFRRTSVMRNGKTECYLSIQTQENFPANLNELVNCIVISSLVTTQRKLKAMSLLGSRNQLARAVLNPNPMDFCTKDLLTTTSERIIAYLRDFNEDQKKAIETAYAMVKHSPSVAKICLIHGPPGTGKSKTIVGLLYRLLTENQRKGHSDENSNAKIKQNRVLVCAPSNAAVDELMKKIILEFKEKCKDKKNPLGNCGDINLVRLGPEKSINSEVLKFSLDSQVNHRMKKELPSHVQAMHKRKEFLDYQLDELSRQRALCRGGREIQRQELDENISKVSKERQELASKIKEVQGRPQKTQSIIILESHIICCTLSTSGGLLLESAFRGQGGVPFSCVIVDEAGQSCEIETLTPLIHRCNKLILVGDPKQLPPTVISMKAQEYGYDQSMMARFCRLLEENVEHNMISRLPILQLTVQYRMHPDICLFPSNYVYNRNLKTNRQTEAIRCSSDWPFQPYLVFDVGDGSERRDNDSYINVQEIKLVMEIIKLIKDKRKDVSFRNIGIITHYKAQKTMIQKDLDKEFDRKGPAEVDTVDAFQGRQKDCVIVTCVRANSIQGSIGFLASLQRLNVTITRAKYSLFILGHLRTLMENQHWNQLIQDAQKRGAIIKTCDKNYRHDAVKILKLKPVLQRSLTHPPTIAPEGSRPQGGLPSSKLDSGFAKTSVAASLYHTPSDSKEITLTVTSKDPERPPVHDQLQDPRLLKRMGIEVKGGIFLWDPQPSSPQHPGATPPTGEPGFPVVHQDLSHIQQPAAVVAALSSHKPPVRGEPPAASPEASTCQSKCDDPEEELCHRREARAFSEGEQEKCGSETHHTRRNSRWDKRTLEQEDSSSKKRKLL", "assay": "proximity ligation; Duolink PLA in methanol-fixed MRC-5 cells with antibodies against the two endogenous proteins; cells mock treated (DMSO), 25 uM CPT for 10 min, or 50 uM alpha-amanitin overnight followed by CPT", "data": [{"substance": "ubiquitin specific peptidase 11 (USP11), endogenous (from UniProt P51784 1-963)", "values": [{"measurement": "fold increase in PLA signal after CPT (against unperturbed cells)", "result": 5, "unit": "fold"}]}]}
